Results: patent US20230204576A1

Key:
[1] = target: HLA A*03:01, labelled with Alexafluor 647 (human); test: microfluidic diffusional sizing, 25 nM HLA, non-linear binding fit
[2] = target: HLA A*03:01, labelled with Alexafluor 647 (human); test: microfluidic diffusional sizing, global fit at 25 nM and 500 pM HLA

- Kd [1]: 0.961 nM
- binding site concentration B1 [1]: 13 nM
- Kd [2]: 0.466 nM
Substance: antibody W6/32
